In patent US20140179896A1 (published 2014):

Target: T1, human vascular endothelial growth factor receptor-2 Fc chimera (KDR-Fc) (human, UniProt P35968 20-764)
T1 construct: range 1-764; also called human VEGFR-2; VEGF-R2-Fc; not shown: human IgG1 Fc
Test: radioactive equilibrium binding, 1 nM KDR-Fc
Protocol: To prepare ³⁵S-labeled binding proteins for analysis, mRNA was prepared as described above for RNA-protein fusion production but the linker ligation step was omitted. The mRNA was expressed using rabbit reticulocyte lysate translation kit (Ambion) in the presence of ³⁵S-labeled Met at 30° C. for 1 hour. Expressed protein was purified on M2-agarose Flag beads (Sigma) as described above. This procedure produced the encoded protein without the nucleic acid tail. In a direct binding assay, VEGF-R2-Fc fusions in concentrations ranging from 0 to 200 nM were added to a constant concentration of the purified protein (0.2 or 0.5 nM) and incubated at 30° C. for 1 hour in buffer B. The receptor-binder complexes were captured using Protein A magnetic beads for another 10 minutes at room temperature using a Kingfisher™ The beads were washed with six reaction volumes of buffer B. The protein was eluted from the beads with 100 μL of 0.1 M KOH. […] of the reaction mixture and elution were dried onto a LumaPlate-96 (Packard) and the amount of ³⁵S on the plate was measured using a TopCount NXT instrument (Packard). The amount of fibronectin-based scaffold protein bound to the target was estimated as a percent of radioactivity eluted from Protein A magnetic beads compare to radioactivity in the reaction mixture. Nonspecific binding of fibronectin-based scaffold proteins to the beads was determined by measuring binding in the absence of KDR-Fc and represented less than 1-2% of the input. Specific binding was obtained through subtraction of nonspecific binding from total binding. Data was analyzed using the GraphPad Prizm software (GraphPad Software, Inc, San Diego, Calif.), fitted using a one site, non-linear binding equation.

T1 sequence (P35968 20-764 limits assumed, change not shown, form in doubt): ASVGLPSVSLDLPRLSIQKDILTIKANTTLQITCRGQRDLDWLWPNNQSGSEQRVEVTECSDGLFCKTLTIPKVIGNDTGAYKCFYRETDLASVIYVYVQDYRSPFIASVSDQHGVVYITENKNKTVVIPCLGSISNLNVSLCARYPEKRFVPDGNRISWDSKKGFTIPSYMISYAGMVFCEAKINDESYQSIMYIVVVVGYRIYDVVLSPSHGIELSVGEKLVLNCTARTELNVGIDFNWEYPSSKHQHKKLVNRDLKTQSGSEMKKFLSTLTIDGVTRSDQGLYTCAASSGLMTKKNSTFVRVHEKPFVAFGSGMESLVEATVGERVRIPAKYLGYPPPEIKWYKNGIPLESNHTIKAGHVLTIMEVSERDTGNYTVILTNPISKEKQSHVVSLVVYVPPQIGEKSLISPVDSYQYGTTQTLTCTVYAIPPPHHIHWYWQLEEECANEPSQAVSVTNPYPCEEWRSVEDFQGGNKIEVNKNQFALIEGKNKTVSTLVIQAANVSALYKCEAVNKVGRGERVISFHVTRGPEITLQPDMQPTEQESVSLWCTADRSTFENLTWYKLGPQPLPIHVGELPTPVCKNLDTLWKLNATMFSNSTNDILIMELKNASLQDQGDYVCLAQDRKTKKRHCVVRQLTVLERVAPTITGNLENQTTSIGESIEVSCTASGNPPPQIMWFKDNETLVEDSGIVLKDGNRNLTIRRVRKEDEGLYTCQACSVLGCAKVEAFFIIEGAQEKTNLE

Binder	Binding to 1 nM KDR, % [%]
2′Del F8 PR4 (designed binder, Del 1-8) EVVAATPTSLLISWRHPHFPTRYYRITYGETGGNSPVQEFTVPLQPPTATISGLKPGVDYTITGYAVTAGPGAHELLTPISINYRT	42
3A3 PR3 (designed binder, Del 1-8) EVVAATPTSLLISWRHPHFPTRYYRITYGETGGNSPVQEFTVPLQPPTATISGLKPGVDYTITGYAVTLAYNGREIITPISINYRT	23
2′Del H5 PR4 (designed binder, Del 1-8) EVVAATPTSLLISWRHPHFPTRYYRITYGETGGNSPVQEFTVPLQPPTATISGLKPGVDYTITGYAVTLGKDVRELLTPISINYRT	34
3C3 PR3 (designed binder, Del 1-8) EVVAATPTSLLISWRHPHFPTRYYRITYGETGGNSPVQEFTVPLQPPTATISGLKPGVDYTITGYAVTMEQNGHELFTPISINYRT	17
2′DelA5 PR4 (designed binder, Del 1-8) EVVAATPTSLLISWRHPHFPTRYYRITYGETGGNSPVQEFTVPLQPPTATISGLKPGVDYTITGYAVTWNQNGQELFTPISINYRT	20
2′Del G9 PR4 (designed binder, Del 1-8) EVVAATPTSLLISWRHPHFPTRYYRITYGETGGNSPVQEFTVPLQPPTATISGLKPGVDYTITGYAVTVEQNGRELIIPISINYRT	33
3B5 PR3 (designed binder, Del 1-8) EVVAATPTSLLISWRHPHFPTRYYRITYGETGGNSPVQEFTVPLQPPTATISGLKPGVDYTITGYAVTFGQNGHALLTPISINYRT	20
2′DelH4 PR4 (designed binder, Del 1-8) EVVAATPTSLLISWRHPHFPTRYYRITYGETGGNSPVQEFTVPLQPPTATISGLKPGVDYTITGYAVTVGPNERMLMTPISINYRT	30
3A2 PR3 (designed binder, Del 1-8) EVVAATPTSLLISWRHPHFPTRYYRITYGETGGNSPVQEFTVPLQPPTATISGLKPGVDYTITGYAVTWSQNNRELFTPISINYRT	23
2′DelG5 PR4 (designed binder, Del 1-8) EVVAATPTSLLISWRHPHFPTRYYRITYGETGGNSPVQEFTVPLQPPTATISGLKPGVDYTITGYAVTVGQNNHELLTPISINYRT	19
2′DelC7 PR4 (designed binder, Del 1-8) EVVAATPTSLLISWRHPHFPTRYYRITYGETGGNSPVQEFTVPLQPPTATISGLKPGVDYTITGYAVTWDQNGHVLLTPISINYRT	19
2′Del H6 PR4 (designed binder, Del 1-8) EVVAATPTSLLISWRHPHFPTRYYRITYGETGGNSPVQEFTVPLQPPTATISGLKPGVDYTITGYAVTTGHHDHELIIPISINYRT	28
3B4 PR3 (designed binder, Del 1-8) EVVAATPTSLLISWRHPHFPTRYYRITYGETGGNSPVQEFTVPLQPPTATISGLKPGVDYTITGYAVTVGQNEHELLTPISINYRT	17
2′DelH9 PR4 (designed binder, Del 1-8) EVVAATPTSLLISWRHPHFPTRYYRITYGETGGNSPVQEFTVPLQPPTATISGLKPGVDYTITGYAVTVGWSGHELFVPISINYRT	20
3F8 PR3 (designed binder, Del 1-8) EVVAATPTSLLISWRHPHFPTRYYRITYGETGGNSPVQEFTVPLQPPTATISGLKPGVDYTITGYAVTVAQNGHELKTPISINYRT	17
3C7 PR3 (designed binder, Del 1-8) EVVAATPTSLLISWRHPHFPTRYYRITYGETGGNSPVQEFTVPLQPPTATISGLKPGVDYTITGYAVTRGLNDGELLTPISINYRT	20
2′DelB7 PR4 (designed binder, Del 1-8) EVVAATPTSLLISWRHPHFPTRYYRITYGETGGNSPVQEFTVPLQPPTATISGLKPGVDYTITGYAVTVGYNNRELLTPISINYRT	32
3′A6 PR4 (designed binder, Del 1-8) EVVAATPTSLLISWRHPHFPTRYYRITYGETGGNSPVQEFTVPLQPPTATISGLKPGVDYTITGYAVTLAQNGHELLTPISINYRT	19
2′Del F11 PR4 (designed binder, Del 1-8) EVVAATPTSLLISWRHPHFPTRYYRITYGETGGNSPVQEFTVPLQPPTATISGLKPGVDYTITGYAVTMGQNDKELITPISINYRT	27
2′Del H12 PR4 (designed binder, Del 1-8) EVVAATPTSLLISWRHPHFPTRYYRITYGETGGNSPVQEFTVPLQPPTATISGLKPGVDYTITGYAVTAGGNGHELLTPISINYRT	24
2′DelC3 PR4 (designed binder, Del 1-8) EVVAATPTSLLISWRHPHFPTRYYRITYGETGGNSPVQEFTVPLQPPTATISGLKPGVDYTITGYAVTWAQNGRELLTPISINYRT	29
3C9 PR3 (designed binder, Del 1-8) EVVAATPTSLLISWRHPHFPTRYYRITYGETGGNSPVQEFTVPLQPPTATISGLKPGVDYTITGYAVTLVRNDHELLTPISINYRT	16
3′A7 PR4 (designed binder, Del 1-8) EVVAATPTSLLISWRHPHFPTRYYRITYGETGGNSPVQEFTVPLQPPTATISGLKPGVDYTITGYAVTLSDSGHALFTPISINYRT	34
3F10 PR3 (designed binder, Del 1-8) EVVAATPTSLLISWRHPHFPTRYYRITYGETGGNSPVQEFTVPLQPPTATISGLKPGVDYTITGYAVTLAQDDHELLTPISINYRT	16
2′Del G11 PR4 (designed binder, Del 1-8) EVVAATPTSLLISWRHPHFPTRYYRITYGETGGNSPVQEFTVPLQPPTATISGLKPGVDYTITGYAVTGGQMNRVLMTPISINYRT	22
3G2 PR3 (designed binder, Del 1-8) EVVAATPTSLLISWRHPHFPTRYYRITYGETGGNSPVQEFTVPLQPPTATISGLKPGVDYTITGYAVTFGPSDHVLLTPISINYRT	20
2′DelE4 PR4 (designed binder, Del 1-8) EVVAATPTSLLISWRHPHFPTRYYRITYGETGGNSPVQEFTVPLQPPTATISGLKPGVDYTITGYAVTVHWNGHELMTPISINYRT	34
3D12 PR3 (designed binder, Del 1-8) EVVAATPTSLLISWRHPHFPTRYYRITYGETGGNSPVQEFTVPLQPPTATISGLKPGVDYTITGYAVTLGQNDRQLLVPISINYRT	24
